Assay results reported in patent publication EP3470428A1 (Numab Innovation AG, dated 2019).
Changes are numbered by the printed parent chain. Several values for one entry are separate records, joined by “and”; a condition that tells them apart may be missing. Equal values may be shown once. Read-outs that look alike come from different tables or passages of the source.

B1: PRO885: 38-02-A04 sc01 scDb-i/33-03-G02 sc01 scDb-o (bispecific antibody)
chain: DIQMTQSPSSLSASVGDRVTITCQASQSINDYLAWYQQKPGKAPKLLIYKASTLASGVPSRFSGSGSGTDFTLTISSLQPEDFATYYCQQGYIITDIDNVFGTGTKVTVLGGGGGSQVQLQESGPGLVKPSETLSLTCKVSGFSFSNSYWICWIRQPPGKGLEWIGCTFVGSSDSTYYANWAKGRVTISVDSSKNQFSLKLSSVTAADTAVYYCARHPSDAVYGYANNLWGQGTLVTVSSGGGGSGGGGSGGGGSGGGGSIQMTQSPSSLSASVGDRVTITCQASQSINNVLAWYQQKPGKAPKLLIYRASTLASGVPSRFSGSGSGTDFTLTISSLQPEDFATYYCQSSYGNYGDFGTGTKVTVLGGGGGSQVQLQESGPGLVKPSETLSLTCKVSGFSFSSGYDMCWIRQPPGKGLEWIGCVVAGSVDITYYASWAKGRVTISVDSSKNQFSLKLSSVTAADTAVYYCARKDAYSDAFNLWGQGTLVTVSS
notes: anti-PD-L1xCD137 scDb, CDR grafts of both domains
B2: PRO1126: 38-02-A04 sc01 scDb-i/33_03_G02 sc03 Full scDb-o (bispecific antibody)
chain: B1 chain with I2F, M4L, A43S, V374S, V396A, I410V, G422A, V446K, F453V, Y469F
notes: scDb, STR graft of the PD-L1 domain
B3: Urelumab (antibody, V domains shown)
VH: QVQLQQWGAGLLKPSETLSLTCAVYGGSFSGYYWSWIRQSPEKGLEWIGEINHGGYVTYNPSLESRVTISVDTSKNQFSLKLSSVTAADTAVYYCARDYGPGNYDWYFDLWGRGTLVTVSS
VL: EIVLTQSPATLSLSPGERATLSCRASQSVSSYLAWYQQKPGQAPRLLIYDASNRATGIPARFSGSGSGTDFTLTISSLEPEDFAVYYCQQRSNWPPALTFGGGTKVEIK
B4: PRO951: 38-27-C05 sc02 scDb-i/33-03-G02 sc01 scDb-o (bispecific antibody)
chain: DIQMTQSPSSLSASVGDRVTITCQASQSINDYLAWYQQKPGKAPKLLIYKASTLASGVPSRFSGSGSGTDFTLTISSLQPEDFATYYCQQGYIITDIDNVFGTGTKVTVLGGGGGSEVQLVESGGGLVQPGGSLRLSCAASGFSFNNDYDMCWVRQAPGKGLEWIGCIDTGDGSTYYASWAKGRFTISRDNSKNTVYLQMNSLRAEDTAVYYCAREAASSSGYGMGYFDLWGQGTLVTVSSGGGGSGGGGSGGGGSGGGGSIQMTQSPSSLSASVGDRVTITCQSSQSVYDNNWLAWYQQKPGKAPKLLIYRASNLASGVPSRFSGSGSGTDFTLTISSLQPEDFATYYCQGTYLSSNWYWAFGTGTKVTVLGGGGGSQVQLQESGPGLVKPSETLSLTCKVSGFSFSSGYDMCWIRQPPGKGLEWIGCVVAGSVDITYYASWAKGRVTISVDSSKNQFSLKLSSVTAADTAVYYCARKDAYSDAFNLWGQGTLVTVSS
notes: anti-PD-L1xCD137 scDb
B5: PRO1058: 38_27_C05 sc01 scDb-i/33-03-G02 sc01 scDb-o/mxr HSA (23-13-A01-sc03, sk17sh4) (other)
chain: DIQMTQSPSSLSASVGDRVTITCQASQSINDYLAWYQQKPGKAPKLLIYKASTLASGVPSRFSGSGSGTDFTLTISSLQPEDFATYYCQQGYIITDIDNVFGTGTKVTVLGGGGGSQVQLQESGPGLVKPSETLSLTCKVSGFSFNNDYDMCWIRQPPGKGLEWIGCIDTGDGSTYYASWAKGRVTISVDSSKNQFSLKLSSVTAADTAVYYCAREAASSSGYGMGYFDLWGQGTLVTVSSGGGGSGGGGSGGGGSGGGGSIQMTQSPSSLSASVGDRVTITCQSSQSVYDNNWLAWYQQKPGKAPKLLIYRASNLASGVPSRFSGSGSGTDFTLTISSLQPEDFATYYCQGTYLSSNWYWAFGTGTKVTVLGGGGGSQVQLQESGPGLVKPSETLSLTCKVSGFSFSSGYDMCWIRQPPGKGLEWIGCVVAGSVDITYYASWAKGRVTISVDSSKNQFSLKLSSVTAADTAVYYCARKDAYSDAFNLWGQGTLVTVSSGGGGSGGGGSVVMTQSPSSLSASVGDRVTITCQASQIISSRSAWYQQKPGQPPKLLIYQASKLASGVPSRFSGSGSGTDFTLTISSLQPEDFATYYCQCTYIDSNFGAFGGGTKLTVLGGGGGSGGGGSGGGGSGGGGSEVQLVESGGGLVQPGGSLRLSCAASGFSFSSSYWICWVRQAPGKGLEWVGCVFTGDGTTYYASWAKGRFTISRDNSKNTVYLQMNSLRAEDTATYFCARPVSVYYYGMDLWGQGTLVTVSS
notes: Trispecific scTriabody (scDb-scFv)
B6: PRO997 (anti-PD-L1 scFv, CDR set of clone 37-20-B03 grafted on a VH4 framework) (scFv)
chain: DIQMTQSPSSLSASVGDRVTITCQASQSIGTYLAWYQQKPGKAPKLLIYRAFILASGVPSRFSGSGSGTDFTLTISSLQPEDFATYYCQSNFYSDSTTIGPNAFGTGTKVTVLGGGGGSGGGGSGGGGSGGGGSQVQLQESGPGLVKPSETLSLTCKVSGFSFNSDYWIYWIRQPPGKGLEWIGSIYGGSSGNTQYASWAQGRVTISVDSSKNQFSLKLSSVTAADTAVYYCARGYVDYGGATDLWGQGTLVTVSS

How the values were obtained:
[1] = molecular target: T1, human PD-L1 expressed on cells (human, UniProt Q9NZQ7 19-290); experiment: cell-based or functional assay
[2] = molecular target: T2, human CD137 expressed on cells (human, UniProt Q07011 24-255); experiment: cell-based or functional assay
[3] = molecular target: T2, human CD137 expressed on cells; experiment: cell-based or functional assay; remark: listed apart in the source
[4] = molecular target: T2, human CD137 expressed on cells; experiment: cell-based or functional assay; remark: listed apart in the source
[5] = molecular target: T2, human CD137 expressed on cells; experiment: cell-based or functional assay; remark: listed apart in the source
[6] = molecular target: T2, human CD137 expressed on cells; experiment: cell-based or functional assay; remark: listed apart in the source
[7] = molecular target: T2, human CD137 expressed on cells; experiment: cell-based or functional assay; remark: listed apart in the source
[8] = molecular target: T2, human CD137 expressed on cells; experiment: cell-based or functional assay; remark: listed apart in the source
[9] = molecular target: T2, human CD137 expressed on cells; experiment: cell-based or functional assay; remark: listed apart in the source
[10] = molecular target: T2, human CD137 expressed on cells; experiment: cell-based or functional assay; remark: listed apart in the source
[11] = molecular target: T2, human CD137 expressed on cells; experiment: cell-based or functional assay; remark: listed apart in the source
biotinylated human PD-L1 [12] = molecular target: T3, biotinylated human PD-L1 (human, UniProt Q9NZQ7 19-238, limits assumed, biotinylated); experiment: competition ELISA; coated human B7.1 as competitor; biotinylated PD-L1 pre-incubated with inhibitor
T3 construct: also called biotinylated PD-L1

biotinylated human PD-L1 [13] = molecular target: T3, biotinylated human PD-L1; experiment: competition ELISA; coated human PD-1 as competitor; biotinylated human PD-L1 pre-incubated with inhibitor
[14] = molecular target: T1, human PD-L1 expressed on cells; experiment: cell-based or functional assay; remark: listed apart in the source
human serum albumin = molecular target: T4, human serum albumin (human, UniProt P02768 25-609); experiment: SPR (Biacore T200); SA amine-coupled; pH 5.5
T4 construct: Amine-coupled to a CM5 chip; assay at pH 5.5; also called HSA; human SA

[15] = molecular target: human PD-L1-Fc chimeric protein (human, UniProt Q9NZQ7 19-239); experiment: SPR (Biacore T200); PD-L1-Fc captured by anti-human Fc
[16] = molecular target: T1, human PD-L1 expressed on cells; experiment: cell-based or functional assay; remark: listed apart in the source

Binder | IC50 (ng/ml), neutralization of PD-L1/PD-1 interaction, NFAT-luciferase reporter gene assay [1] [ng/mL] | EC50 in ng/ml, CD137 activation, NFkB-luciferase Jurkat reporter assay, CHO-PD-L1 cells [2] [ng/mL] | EC50 in ng/ml, CD137 activation, NFkB-luciferase Jurkat reporter assay, CHO-PD-L1 cells [3] | EC50 in ng/ml, CD137 activation, NFkB-luciferase Jurkat reporter assay, HCC827 cells without IFNg [4] | EC50 in ng/ml, CD137 activation, NFkB-luciferase Jurkat reporter assay, HCC827 cells stimulated with IFNg [5] | EC50 in ng/ml, CD137 activation, NFkB-luciferase Jurkat reporter assay, PD-L1 expressing CHO cells, 6h [6] [ng/mL] | EC50 in ng/ml, CD137 activation, NFkB-luciferase Jurkat reporter assay, PD-L1 expressing CHO cells, 6h, + HSA [6] [ng/mL] | EC50 in ng/ml, CD137 activation, NFkB-luciferase Jurkat reporter assay, PD-L1 expressing CHO cells, 24h [7] [ng/mL] | EC50 in ng/ml, CD137 activation, NFkB-luciferase Jurkat reporter assay, PD-L1 expressing CHO cells, 24h, + HSA [7] [ng/mL] | EC50 in ng/ml, CD137 activation, NFkB-luciferase Jurkat reporter assay, HCC827 with IFNy stimulation, 24h [8] [ng/mL] | EC50 in ng/ml, CD137 activation, NFkB-luciferase Jurkat reporter assay, HCC827 without IFNy stimulation, 24h [8] [ng/mL] | max. activation (%), NF-kB reporter gene, CHO-PD-L1; HSA: no [10] [%] | max. activation (%), NF-kB reporter gene, HCC827 +IFNg; HSA: no [10] [%] | max. activation (%), NF-kB reporter gene, HCC827 -IFNg; HSA: no [10] [%] | IC50 (biotinylated human PD-L1 [12]) [µg/mL] | IC50 (biotinylated human PD-L1 [13]) [µg/mL] | also measured
B1 | 137 | 11.7 | 5.13 ng/mL and 4.86 ng/mL and 6.3 ng/mL | 11.5 ng/mL and 13.1 ng/mL and 13 ng/mL | 9.27 ng/mL and 8.88 ng/mL and 9.23 ng/mL | 7.84 | 7.92 | 13.8 | 14.8 | 7.51 | 9.52 | 499 | 134 | 111 | 0.0122 | 0.00835 | EC50 (ng/ml), IL-2 secretion by PBMC; anti-CD3 1 ug/ml, 50000 PD-L1 expressing CHO cells/well [9]: 12.8 ng/mL; EC50 (ng/ml), IL-2 secretion by PBMC; anti-CD3 1 ug/ml, 100000 PD-L1 expressing CHO cells/well [9]: 86.2 ng/mL; EC50 (ng/ml), IL-2 secretion by PBMC; anti-CD3 1 ug/ml, 200000 PD-L1 expressing CHO cells/well [9]: 80.6 ng/mL; EC50 (ng/ml), IL-2 secretion by PBMC; anti-CD3 2 ug/ml, 50000 PD-L1 expressing CHO cells/well [9]: 52 ng/mL; EC50 (ng/ml), IL-2 secretion by PBMC; anti-CD3 2 ug/ml, 100000 PD-L1 expressing CHO cells/well [9]: 41.9 ng/mL; EC50 (ng/ml), IL-2 secretion by PBMC; anti-CD3 2 ug/ml, 200000 PD-L1 expressing CHO cells/well [9]: 30.1 ng/mL; EC50 in ng/ml, IL-2 secretion, PBMC stimulated with SEA [11]: 39.9 ng/mL
B2 | – | – | 6 ng/mL | 6.97 ng/mL | 5.48 ng/mL | – | – | – | – | – | – | 242 | 208 | 135 | – | 0.00128 | IC50, neutralization of PD-L1/PD-1 interaction, NFAT-luciferase reporter gene assay [14]: 0.0481 µg/mL
B3 | – | 79.1 | 79.5 ng/mL and 104 ng/mL and 86.5 ng/mL | 212 ng/mL and 110 ng/mL and 112 ng/mL | 114 ng/mL and 145 ng/mL and 108 ng/mL | 56.5 | 77.7 | 46.6 | 78.2 | 52.8 | 47.5 | – | – | – | – | – | –
B4 | 88.5 | 33.7 | – | – | – | – | – | – | – | – | – | 432 | – | – | 0.0093 | 0.0095 | –
B5 | – | – | – | – | – | – | 70.9 | – | 121 | – | – | – | – | – | – | – | max. activation (%), NF-kB reporter gene, CHO-PD-L1; HSA: yes, 24h [10]: 36.2%; binding result (human serum albumin): binds; binding result [15]: binds
B6 | 11.1 | – | – | – | – | – | – | – | – | – | – | – | – | – | 0.00636 | 0.0005 | EC50 in ng/ml, IL-2 secretion, PBMC stimulated with SEA [16]: 40.9 ng/mL; fold higher affinity against the STR graft of clone 33-03-G02 [15]: ~2 fold
